Laboratory results: article PMC9958480, “Structural insights into the recognition of telomeric variant repeat TTGGGG by broad-complex, tramtrack and bric-à-brac - zinc finger protein ZBTB10”

Target: T1, ZBTB10 ZF1-2 R767Q (human, UniProt Q96DT7 713-779, R767Q)
T1 sequence: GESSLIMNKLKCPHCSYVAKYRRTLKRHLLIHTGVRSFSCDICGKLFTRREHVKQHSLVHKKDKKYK
Assay: X-ray crystallography; Zn2+; 1.9 A, P1; ITC at 20 C, ~30 uM dsDNA in cell, ~300 uM protein in syringe; proteins dialyzed in 20 mM Tris-HCl pH 7.5, 150 mM NaCl (ITC buffer not separately stated)
Details: protein: recombinant; tags: MBP removed by PreScission; 5' overhang 1 nt on each strand (T and A)

B1: TTAGGG crystal duplex (dsDNA)
DNA 1: TTAGGGTTATA
DNA 2: ATATAACCCTA
B1: binds.
